Results from the supplement of paper PMC10598134.
± gives the standard deviation.

Assay: collision cross section of modified peptide (TIMS, N2, iRT-aligned); higher = larger / more extended gas-phase ion
How it was run: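 Collision cross section values rest on the Mason-Schamp equation applied to calibrated, run-aligned mobility data from synthetic peptides. Mobility (1/K0) was calibrated with three reference ions and aligned per run to the median iRT peptide deviation, and 1–3 technical replicates of the most abundant feature per charge state were averaged. Data came from a timsTOF Pro/HT in dda-PASEF mode (nitrogen, ~2.4 mbar) after a 120-min nanoflow C18 gradient at 60 °C.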

[1] = charge state: 2, modification: Phospho (Y)
[2] = charge state: 3, modification: Phospho (Y)
[3] = charge state: 3, modification: Citrullination (R)
[4] = charge state: 2, modification: Nitro (Y)
[5] = charge state: 3, modification: Nitro (Y)
[6] = charge state: 3, modification: Methyl (R)
[7] = charge state: 2, modification: HexNAc (ST)
[8] = charge state: 3, modification: Dimethyl (K)
[9] = charge state: 2, modification: Glutarylation
[10] = charge state: 2, modification: GlyGly (K)
[11] = charge state: 3, modification: GlyGly (K)
[12] = charge state: 3, modification: Methyl (K)
[13] = charge state: 2, modification: Succinyl

**Q.** With “HHAAYVNNLNVTEEK [_HHAAY(Phospho (Y))VNNLNVTEEK_]” as the sequence, how does the collision cross section [1] read?
**A.** Its collision cross section is 438.56 Å².

**Q.** And the collision cross section [2]?
**A.** The collision cross section was 495.42 ± 1.2 Å².

**Q.** For “HHTLRQAPQPQSSLQR [_HHTLR(Citrullination (R))QAPQPQSSLQR_]”, which collision cross section [3] is on record?
**A.** Its collision cross section is 502.84 ± 0.41 Å².

**Q.** For HIGFVYHPTK [_HIGFVY(Nitro (Y))HPTK_], which collision cross section [4] is on record?
**A.** The collision cross section was 375.77 ± 0.17 Å².

**Q.** What about the collision cross section [5] of the same sequence?
**A.** Its collision cross section is 448.27 ± 1.8 Å².

**Q.** With HIGFVYHPTK [_HIGFVY(Phospho (Y))HPTK_] as the sequence, how does the collision cross section [1] read?
**A.** The collision cross section was 384.4 ± 0.77 Å².

**Q.** And the collision cross section [2]?
**A.** Its collision cross section is 458.98 ± 1.8 Å².

**Q.** With “HLRGHGPQPPLR [_HLR(Citrullination (R))GHGPQPPLR_]” as the sequence, how does the collision cross section (charge state: 2, modification: Citrullination (R)) read?
**A.** Its collision cross section is 393.67 ± 4.3 Å².

**Q.** What about the collision cross section [3] of the same sequence?
**A.** The collision cross section was 482.78 ± 1.8 Å².

**Q.** With “HLRGHGPQPPLR [_HLR(Methyl (R))GHGPQPPLR_]” as the sequence, how does the collision cross section [6] read?
**A.** The collision cross section was 492.6 ± 2.1 Å².

**Q.** Which collision cross section [3] does the source give for “HSPTLPEPGGLRLELPLSR [_HSPTLPEPGGLR(Citrullination (R))LELPLSR_]” here?
**A.** Its collision cross section is 513.82 ± 1.9 Å².

**Q.** Which collision cross section [3] does the source give for “HTLLRAPAPELLPANVAGR [_HTLLR(Citrullination (R))APAPELLPANVAGR_]” here?
**A.** The collision cross section was 517.22 ± 8.9 Å².

**Q.** For “HTLLRAPAPELLPANVAGR [_HTLLR(Methyl (R))APAPELLPANVAGR_]”, which collision cross section [6] is on record?
**A.** The collision cross section was 530.63 ± 1.2 Å².

**Q.** With HVSPVTPPR [_HVSPVT(HexNAc (ST))PPR_] as the sequence, how does the collision cross section [7] read?
**A.** The collision cross section was 366.95 ± 0.8 Å².

**Q.** For “IDLPAENSNSETIIITGKR [_IDLPAENSNSETIIITGK(Acetyl (K))R_]”, which collision cross section (charge state: 3, modification: Acetyl (K)) is on record?
**A.** Its collision cross section is 569.63 Å².

**Q.** Which collision cross section [8] does the source give for “IDLPAENSNSETIIITGKR [_IDLPAENSNSETIIITGK(Dimethyl (K))R_]” here?
**A.** The collision cross section was 568.21 ± 0.55 Å².

**Q.** For “IDLPAENSNSETIIITGKR [_IDLPAENSNSETIIITGK(Gluratylation)R_]”, which collision cross section [9] is on record?
**A.** The collision cross section was 499.21 ± 1.9 Å².

**Q.** Which collision cross section [10] does the source give for “IDLPAENSNSETIIITGKR [_IDLPAENSNSETIIITGK(GlyGly (K))R_]” here?
**A.** Its collision cross section is 493.9 ± 1.8 Å².

**Q.** What about the collision cross section [11] of the same sequence?
**A.** Its collision cross section is 582.79 ± 0.38 Å².

**Q.** With “IDLPAENSNSETIIITGKR [_IDLPAENSNSETIIITGK(Methyl (K))R_]” as the sequence, how does the collision cross section [12] read?
**A.** Its collision cross section is 568.48 ± 0.62 Å².

**Q.** With “IDLPAENSNSETIIITGKR [_IDLPAENSNSETIIITGK(Succinyl)R_]” as the sequence, how does the collision cross section [13] read?
**A.** Its collision cross section is 492.62 ± 0.3 Å².

**Q.** For “IDLPAENSNSETIIITGKR [_IDLPAENSNSETIIITGK(Trimethyl (K))R_]”, which collision cross section (charge state: 3, modification: Trimethyl (K)) is on record?
**A.** The collision cross section was 576.62 Å².

**Q.** With “IEDEQALGSQLQK [_IEDEQALGS(HexNAc (ST))QLQK_]” as the sequence, how does the collision cross section [7] read?
**A.** The collision cross section was 424.7 ± 0.62 Å².

**Q.** And the collision cross section (charge state: 3, modification: HexNAc (ST))?
**A.** The collision cross section was 499.3 ± 0.96 Å².

**Q.** For “IFDSEEILAGYK [_IFDSEEILAGY(Nitro (Y))K_]”, which collision cross section [4] is on record?
**A.** The collision cross section was 395.88 ± 0.18 Å².

**Q.** Which results are given for IGAEVYHHLK [_IGAEVY(Nitro (Y))HHLK_]?
**A.** collision cross section [4]: 375.15 ± 0.55 Å²; collision cross section [5]: 440.09 ± 1.8 Å²

**Q.** For IGAEVYHHLK [_IGAEVY(Phospho (Y))HHLK_], which collision cross section [1] is on record?
**A.** The collision cross section was 385.73 ± 0.77 Å².

**Q.** Which collision cross section (charge state: 2, modification: Acetyl (K)) does the source give for IGNSYFKEEK [_IGNSYFK(Acetyl (K))EEK_] here?
**A.** Its collision cross section is 372.71 ± 0.4 Å².

**Q.** Which collision cross section (charge state: 2, modification: Biotin) does the source give for IGNSYFKEEK [_IGNSYFK(Biotin)EEK_] here?
**A.** The collision cross section was 398.98 Å².

**Q.** For IGNSYFKEEK [_IGNSYFK(Butyryl)EEK_], which collision cross section (charge state: 2, modification: Butyryl) is on record?
**A.** Its collision cross section is 377.97 ± 0.72 Å².

**Q.** With IGNSYFKEEK [_IGNSYFK(Crotonyl)EEK_] as the sequence, how does the collision cross section (charge state: 2, modification: Crotonyl) read?
**A.** Its collision cross section is 378.81 ± 0.89 Å².

**Q.** For IGNSYFKEEK [_IGNSYFK(Dimethyl (K))EEK_], which collision cross section (charge state: 2, modification: Dimethyl (K)) is on record?
**A.** Its collision cross section is 384.15 ± 0.26 Å².

**Q.** What about the collision cross section [8] of the same sequence?
**A.** Its collision cross section is 447.26 ± 3 Å².

**Q.** For IGNSYFKEEK [_IGNSYFK(Formyl)EEK_], which collision cross section (charge state: 2, modification: Formyl) is on record?
**A.** Its collision cross section is 368.62 ± 0.55 Å².

**Q.** Which collision cross section [9] does the source give for “IGNSYFKEEK [_IGNSYFK(Gluratylation)EEK_]” here?
**A.** Its collision cross section is 381.23 ± 0.61 Å².

**Q.** What does the source list for IGNSYFKEEK [_IGNSYFK(GlyGly (K))EEK_]?
**A.** collision cross section [10]: 386.48 ± 0.54 Å²; collision cross section [11]: 442.05 ± 1.6 Å²

**Q.** With IGNSYFKEEK [_IGNSYFK(Malonyl)EEK_] as the sequence, how does the collision cross section (charge state: 2, modification: Malonyl) read?
**A.** Its collision cross section is 378.34 Å².

**Q.** For IGNSYFKEEK [_IGNSYFK(Methyl (K))EEK_], which collision cross section (charge state: 2, modification: Methyl (K)) is on record?
**A.** The collision cross section was 373.94 ± 0.87 Å².

**Q.** And the collision cross section [12]?
**A.** Its collision cross section is 450.33 ± 4.8 Å².

**Q.** With IGNSYFKEEK [_IGNSYFK(Propionyl)EEK_] as the sequence, how does the collision cross section (charge state: 2, modification: Propionyl) read?
**A.** The collision cross section was 375.51 ± 0.65 Å².

**Q.** For IGNSYFKEEK [_IGNSYFK(Succinyl)EEK_], which collision cross section [13] is on record?
**A.** The collision cross section was 382.2 ± 0.76 Å².
